The values that follow come from patent US10543282B2, “Targeted peptide conjugates” (Marker Gene Technologies, Inc., priority 2014, dated 2020).

SMILES strings stand for the structures. Non-standard residues stand in square brackets, D forms with d. Residues, ends and D or L forms follow the SMILES beside them. ξ: configuration not given here. *: point of attachment. X2 = Cn1cc(C2=C(c3ccc(NC(=O)CCCN4C(=O)CC(*)C4=O)cc3)C(=O)NC2=O)c2ccccc21; X1 = O=C(CCCN1C(=O)CC(*)C1=O)Nc1c(Br)cc(Br)cc1CN[C@H]1CC[C@H](O)CC1; ξC = NC(CS)C(=O)O; ξA = CC(N)C(=O)O

Series [1] deals with lysosomal GCase in immortalized B-Lymphoblast cells derived from a Gaucher I patient (GM10870). Kind of series: Lysosomal GCase activity by flow cytometry with LysoLive fluorogenic GCase substrate. It is filed as cell-based, human. To be noted: 48 hours; for lysosomal GCase activity, Ambroxol and its targeted derivative: multiple concentrations, FIG. 15; for lysosomal GCase activity compared to native drug SB216763: 1.0-5.0 uM, FIG. 14. As for the experimental part:
Immortalized B-Lymphoblast cells derived from a Gaucher I patient (GM10870, CCR) were incubated overnight in a CO2 incubator at 37° C./5% CO2. Equal numbers of cells (50,000 cells/well) were transferred to individual wells of 96-well tissue culture plates and treated with the native drug NSC 95397 or the organelle targeted NSC 95397 derivatives (M2770, M2771) at multiple concentrations (0.5-10 uM) and incubated at 37° C./5% CO2 for 48 hours. A lysosomal-targeted fluorogenic GCase substrate (MarkerGene™ LysoLive™ Lysosomal β-Glucosidase Assay Kit, Product M2775) was then added to the wells according to the manufacturer's instructions to a final concentration of 5 uM and cells were incubated a further 16 hours. DRAQ7 (dead-cell stain) was then added to the cells to a final concentration of 3 uM and cells immediately analyzed using a BD Accuri C6 flow cytometer, capturing 10000 live cell events and the median fluorescence of the stained cell populations graphed as shown in FIG. 13.
Immortalized B-Lymphoblast cells derived from a Gaucher I patient (GM10870, CCR) were incubated overnight in a CO2 incubator at 37° C./5% CO2. Equal numbers of cells (50,000 cells/well) were transferred to individual wells of 96-well tissue culture plates and treated with native drug SB216763 or the organelle targeted SB216763 derivatives (M2747, M2748) at multiple concentrations (1.0-5.0 uM) and incubated at 37° C./5% CO2 for 48 hours. A lysosomal-targeted fluorogenic GCase substrate (MarkerGene™ LysoLive™ Lysosomal β-Glucosidase Assay Kit, Product M2775) was then added to the wells according to the manufacturer's instructions to a final concentration of 5 uM and cells were incubated a further 16 hours. DRAQ7 (dead-cell stain) was then added to the cells to a final concentration of 3 uM and all cell wells immediately analyzed using a BD Accuri C6 flow cytometer, capturing 10000 live cell events and the median fluorescence of the stained cell populations graphed as shown in FIG. 14.
Immortalized B-lymphoblast cells derived from a Gaucher I patient leukocytes (GM10870, CCR) were incubated overnight in a CO2 incubator at 37° C./5% CO2. Equal numbers of cells (50,000 cells/well) were transferred to individual wells of 96-well tissue culture plates and treated with the native drug Ambroxol or the organelle-targeted Ambroxol derivative (M2781) at the multiple concentrations shown and incubated at 37° C./5% CO2 for 48 hours. Following drug treatment, a lysosomal-targeted fluorogenic GCase substrate (MarkerGene™ LysoLive™ Lysosomal β-Glucosidase Assay Kit, Product M2775) was then added to the wells according to the manufacturer's instructions to a final concentration of 5 uM and cells were incubated a further 16 hours. DRAQ7 (dead-cell stain) was then added to the cells to a final concentration of 3 uM and cells immediately analyzed using a BD Accuri C6 flow cytometer, capturing 10000 live cell events and the median fluorescence of the stained cell populations graphed as shown in FIG. 15.

Series [2] has as its system Glc-Cer and allied glycolipids in Gaucher patient cells. As to the kind of experiment: TLC analysis of the clearance of excess glycolipids after TPC treatment. Type of series: cell-based, human. To be noted: 10 uM final concentration, 3 days, FIG. 9.
Experimental: A series of targeted pharmacological chaperone derivatives were compared for their abilities to affect glycolipid biosynthesis by 1D-TLC.
Primary Human Fibroblasts from Gaucher I (F0361999) patients were obtained from Istituto Giannina Gaslini (Genova, Italy). Primary Human Fibroblasts from a healthy donor (AG06173) and Gaucher I (GM00372A) patients were obtained from the Coriell Institute for Medical Research (Camden, N.J.). Cells were cultured in Minimum Essential Medium Eagle supplemented with 10% FCS.
Immortalized B-lymphocytes from healthy donor (GM14643), Gaucher I (GM10870, GM10874), and Gaucher II (GM08752) patients were obtained from the Coriell Institute for Medical Research.
Cell labeling solutions were prepared by diluting substrate stock solutions in the appropriate medium for the cell line (see above) without serum. TPC treatment solutions were prepared by diluting stock solutions in complete media appropriate for the cell line. Cells were treated with either the targeted pharmacological chaperones (10 uM final concentration), miglustat (10 uM) or no drug (control) for 3 days prior to all analyses. For lipid analyses cells were counted on a TC-10 Automated Cell Counter (Bio-Rad, Hercules, Calif.) harvested by centrifugation (800×g, 5 min.) and subjected to one PBS wash (1 mL per sample) and centrifugation as above. […]

For the molecule `Nc1c(Br)cc(Br)cc1CNC1CCC(O)CC1` (stereo not drawn) [Ambroxol, 4-(((2-Amino-3,5-dibromophenyl)methyl)amino)cyclohexanol, reference compound], the “lysosomal GCase activity, Ambroxol and its targeted derivative” value in series [1] is “slightly inhibitory toward lysosomal GCase activity”. With `CC(=O)NC(CSC1CC(=O)N(CCCC(=O)Nc2ccc(C3=C(c4cn(C)c5ccccc45)C(=O)NC3=O)cc2)C1=O)C(=O)NC(Cc1ccccc1)C(=O)NC(Cc1ccccc1)C(=O)NC(CCCCN)C(=O)NC(CC(=O)O)C(=O)NC(CCC(=O)O)C(=O)NC(CC(C)C)C(=O)O` (stereo not drawn) [M2747] (Ac-C(X2)FFKDEL-OH; configuration not given here), in series [1], the “lysosomal GCase activity compared to native drug SB216763” value is on record as “increased lysosomal GCase activity in lysosomes compared to the native drug”. Take `CC(C)CC(NC(=O)C(CCCNC(=N)N)NC(=O)C(CCC(N)=O)NC(=O)C(Cc1ccc(O)cc1)NC(=O)C(CC(=O)O)NC(=O)C(CO)NC(=O)C(C)NC(=O)CN)C(=O)NCC(=O)NC(CSC1CC(=O)N(CCCC(=O)Nc2ccc(C3=C(c4cn(C)c5ccccc45)C(=O)NC3=O)cc2)C1=O)C(=O)O` (stereo not drawn) [M2748] (H-GASDYQRLGC(X2)-OH; configuration not given here): in series [1], the “lysosomal GCase activity compared to native drug SB216763” value is “increased lysosomal GCase activity in lysosomes compared to the native drug”.

Turning to `CC(=O)NC(CSC1CC(=O)N(CCCC(=O)Nc2ccc(C3=C(c4cn(C)c5ccccc45)C(=O)NC3=O)cc2)C1=O)C(=O)NCC(=O)NCC(=O)NCC(=O)NCC(=O)NCC(=O)NC(C)C(=O)O` (stereo not drawn) [M2749] (Ac-C(X2)GGGGGA-OH; configuration not given here), the “lysosomal GCase activity compared to native drug SB216763” value in series [1] is given as “equivalent or reduced lysosomal staining/drug efficacy than native drug”. With `CC(=O)NC(CSC1CC(=O)N(CCCC(=O)Nc2c(Br)cc(Br)cc2CN[C@H]2CC[C@H](O)CC2)C1=O)C(=O)NCC(=O)NCC(=O)NCC(=O)NCC(=O)NCC(=O)NC(C)C(=O)O` (stereo partly drawn) [M2781] (Ac-[ξC](X1)GGGGG[ξA]-OH), the “lysosomal GCase activity, Ambroxol and its targeted derivative” value in series [1] is listed as “increased lysosomal GCase activity”. Take `CCCCN1C[C@H](O)[C@@H](O)[C@H](O)[C@H]1CO` [miglustat, N-butyl-deoxynojirimycin]: the “effect on glycolipid biosynthesis / clearance of excess glycolipids (Glc-Cer and allied glycolipids), 1D-TLC” value in series [2] is given as “moderate effect”.
